Biological target: T1, FKBP51, Q13451
T1 chain: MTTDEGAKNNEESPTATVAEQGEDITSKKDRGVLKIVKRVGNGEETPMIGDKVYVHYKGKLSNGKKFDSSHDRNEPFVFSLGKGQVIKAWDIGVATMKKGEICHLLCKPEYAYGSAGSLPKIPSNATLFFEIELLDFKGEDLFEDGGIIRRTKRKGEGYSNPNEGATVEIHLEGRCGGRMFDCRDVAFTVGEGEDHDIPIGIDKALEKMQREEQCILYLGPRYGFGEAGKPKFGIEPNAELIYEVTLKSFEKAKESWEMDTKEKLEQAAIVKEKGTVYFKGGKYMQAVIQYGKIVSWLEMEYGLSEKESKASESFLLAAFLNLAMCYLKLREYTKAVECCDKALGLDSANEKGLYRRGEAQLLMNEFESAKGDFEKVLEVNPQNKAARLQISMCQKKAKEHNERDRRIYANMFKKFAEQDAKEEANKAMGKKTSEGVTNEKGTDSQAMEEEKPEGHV
Test: ITC; 50 µM FKBP51 in the cell titrated with 750 µM p23; 25 °C; 25 mM HEPES, 10 mM KCl, 5 mM MgCl2, 1 mM DTT, pH 7.2; one set of binding sites
Conditions: remark: other sources report otherwise

B1: p23 wild-type (human co-chaperone p23, 160 amino acids), Q15185 1-160 (natural protein)
chain: MQPASAKWYDRRDYVFIEFCVEDSKDVNVNFEKSKLTFSCLGGSDNFKHLNEIDLFHCIDPNDSKHKRTDRSILCCLRKGESGQSWPRLTKERAKLNWLSVDFNNWKDWEDDSDEDMSNFDRFSEMMNNMGGDEDVDLPEVDGADDDSQDSDDEKMPDLE
For B1, the Kd was 67 µM.

From paper PMC11733250
